Publication PMC9237092, “Structural basis for defective membrane targeting of mutant enzyme in human VLCAD deficiency” (Nature Communications, 2022)

Target: the molecule itself
Assay: SEC; Superdex 200 10/300 GL, 4 °C, 250 mM NaCl, 50 mM Tris, pH 8.0; purified VLCAD proteins; peak at ~150 kDa

Protein | stoichiometry N
full-length human VLCAD (very long-chain acyl-CoA dehydrogenase) lacking its cleavable leader sequence, wild type (enzyme, UniProt P49748 41-655, looked up, mature protein aa 1-615. numbers count on: the mature protein; pET19b vector; also called wild-type VLCAD; full-length VLCAD; source: E. coli BL21(DE3), purified (Ni-NTA, SEC)) AGGAAQLALDKSDSHPSDALTRKKPAKAESKSFAVGMFKGQLTTDQVFPYPSVLNEEQTQFLKELVEPVSRFFEEVNDPAKNDALEMVEETTWQGLKELGAFGLQVPSELGGVGLCNTQYARLVEIVGMHDLGVGITLGAHQSIGFKGILLFGTKAQKEKYLPKLASGETVAAFCLTEPSSGSDAASIRTSAVPSPCGKYYTLNGSKLWISNGGLADIFTVFAKTPVTDPATGAVKEKITAFVVERGFGGITHGPPEKKMGIKASNTAEVFFDGVRVPSENVLGEVGSGFKVAMHILNNGRFGMAAALAGTMRGIIAKAVDHATNRTQFGEKIHNFGLIQEKLARMVMLQYVTESMAYMVSANMDQGATDFQIEAAISKIFGSEAAWKVTDECIQIMGGMGFMKEPGVERVLRDLRIFRIFEGTNDILRLFVALQGCMDKGKELSGLGSALKNPFGNAGLLLGEAGKQLRRRAGLGSGLSLSGLVHPELSRSGELAVRALEQFATVVEAKLIKHKKGIVNEQFLLQRLADGAIDLYAMVVVLSRASRSLSEGHPTAQHEKMLCDTWCIEAAARIREGMAALQSDPWQQELYRNFKSISKALVERGGVVTSNPLGF | 2
full-length human VLCAD A450P (enzyme, UniProt P49748 41-655, looked up, Mutation observed in patients with VLCAD deficiency; made by site-directed mutagenesis of the pET19b construct; also called A450P variant; source: E. coli BL21(DE3), purified (Ni-NTA, SEC)) AGGAAQLALDKSDSHPSDALTRKKPAKAESKSFAVGMFKGQLTTDQVFPYPSVLNEEQTQFLKELVEPVSRFFEEVNDPAKNDALEMVEETTWQGLKELGAFGLQVPSELGGVGLCNTQYARLVEIVGMHDLGVGITLGAHQSIGFKGILLFGTKAQKEKYLPKLASGETVAAFCLTEPSSGSDAASIRTSAVPSPCGKYYTLNGSKLWISNGGLADIFTVFAKTPVTDPATGAVKEKITAFVVERGFGGITHGPPEKKMGIKASNTAEVFFDGVRVPSENVLGEVGSGFKVAMHILNNGRFGMAAALAGTMRGIIAKAVDHATNRTQFGEKIHNFGLIQEKLARMVMLQYVTESMAYMVSANMDQGATDFQIEAAISKIFGSEAAWKVTDECIQIMGGMGFMKEPGVERVLRDLRIFRIFEGTNDILRLFVALQGCMDKGKELSGLGSPLKNPFGNAGLLLGEAGKQLRRRAGLGSGLSLSGLVHPELSRSGELAVRALEQFATVVEAKLIKHKKGIVNEQFLLQRLADGAIDLYAMVVVLSRASRSLSEGHPTAQHEKMLCDTWCIEAAARIREGMAALQSDPWQQELYRNFKSISKALVERGGVVTSNPLGF | 2
full-length human VLCAD L462P (enzyme, UniProt P49748 41-655, looked up, Mutation observed in patients with VLCAD deficiency; made by site-directed mutagenesis of the pET19b construct; also called L462P mutant; source: E. coli BL21(DE3), purified (Ni-NTA, SEC)) AGGAAQLALDKSDSHPSDALTRKKPAKAESKSFAVGMFKGQLTTDQVFPYPSVLNEEQTQFLKELVEPVSRFFEEVNDPAKNDALEMVEETTWQGLKELGAFGLQVPSELGGVGLCNTQYARLVEIVGMHDLGVGITLGAHQSIGFKGILLFGTKAQKEKYLPKLASGETVAAFCLTEPSSGSDAASIRTSAVPSPCGKYYTLNGSKLWISNGGLADIFTVFAKTPVTDPATGAVKEKITAFVVERGFGGITHGPPEKKMGIKASNTAEVFFDGVRVPSENVLGEVGSGFKVAMHILNNGRFGMAAALAGTMRGIIAKAVDHATNRTQFGEKIHNFGLIQEKLARMVMLQYVTESMAYMVSANMDQGATDFQIEAAISKIFGSEAAWKVTDECIQIMGGMGFMKEPGVERVLRDLRIFRIFEGTNDILRLFVALQGCMDKGKELSGLGSALKNPFGNAGLLPGEAGKQLRRRAGLGSGLSLSGLVHPELSRSGELAVRALEQFATVVEAKLIKHKKGIVNEQFLLQRLADGAIDLYAMVVVLSRASRSLSEGHPTAQHEKMLCDTWCIEAAARIREGMAALQSDPWQQELYRNFKSISKALVERGGVVTSNPLGF | 2
